Measurements taken from patent publication US20220251595A1, “ENGINEERED ATRLP23 PATTERN RECOGNITION RECEPTORS AND METHODS OF USE” (priority 2019, published 2022).

tested on: corn protoplasts; test: Calcium burst in transiently transfected corn protoplasts, R-GECO1.2 fluorescence reporter; assay type: cell-based, Zea mays; conditions: transient expression in corn protoplasts; 1 μM PpNLP20
Source text: Following ligand (also known as elicitor) binding, PRRs are activated and induce a transient increase of cytosolic Ca^2+ concentration as part of a PTI response. […] In a high-throughput method, the kinetics of PRR-dependent transient variation of cytosolic Ca^2+ concentration can be measured with a fluorimeter or luminometer and in microplate formats of 96 or 384 wells.
Fluorescence was monitored using a fluorimeter equipped with a 100 Hz xenon flash lamp with excitation at 556 nm and emission measured at 585 nm for 100 ms, every 22.6 seconds for 42 minutes.
All of the AtRLP23 constructs have an operably linked 2×35S+Ω promoter construct (SEQ ID NO: 72) and an operably linked rbcS terminator (SEQ ID NO: 73)
Fluorescence was monitored using a fluorimeter equipped with a 100 Hz xenon flash lamp with excitation at 556 nm and emission measured at 585 nm for 30 ms, every 20.2 seconds for 40 minutes. For each fluorescence measurement, the transient change in R-GECO1.2 fluorescence (ΔF) are calculated from background corrected intensity values as (F-Fo), where F represents the average fluorescence intensity of the a batch of protoplasts treated with elicitor, and Fo represents the average fluorescence intensity of the same batch of protoplasts treated with a control solution that lacks the elicitor but is otherwise identical or essentially identical in composition to the solution comprising the elicitor.

Molecule | Ca^2+ increase in response to PpNLP20 treatment (R-GECO1.2 fluorescence)
AtRLP23-eJMVe1-3×FLAG: AtRLP23 with the SlVe1 eJM domain, 3×FLAG; SEQ ID NO: 53, 54 (protein, Fusion protein) MSKALLHLHFLSLFLLCCVCHSSIFTLNFHFTGIVACRPHQIQAFTKFTNEFDTRGCNNSDTFNGVWCDNSTGAVAVLQLRKCLSGTLKSNSSLFGFHQLRYVDLQNNNLTSSSLPSGFGNLKRLEGLFLSSNGFLGQVPSSFSNLTMLAQLDLSYNKLTGSFPLVRGLRKLIVLDLSYNHFSGTLNPNSSLFELHQLRYLNLAFNNFSSSLPSKFGNLHRLENLILSSNGFSGQVPSTISNLTRLTKLYLDQNKLTSSFPLVQNLTNLYELDLSYNKFFGVIPSSLLTLPFLAHLALRENNLAGSVEVSNSSTSSRLEIMYLGSNHFEGQILEPISKLINLKHLDLSFLNTSYPIDLKLFSSLKSLRSLDLSGNSISSASLSSDSYIPLTLEMLTLRHCDINEFPNILKTLKELVYIDISNNRMKGKIPEWLWSLPLLQSVTLGNNYFTGFQGSAEILVNSSVLLLYLDSNNFEGALPDLPLSIKGFGVASNSFTSEIPLSICNRSSLAAIDLSYNNFTGPIPPCLRNLELVYLRNNNLEGSIPDALCDGASLRTLDVSHNRLTGKLPRSFVNCSSLKFLSVINNRIEDTFPFWLKALPNLQVLTLRSNRFYGPISPPHQGPLGFPELRIFEISDNKFTGSLPPNYFVNWKASSRTMNQDGGLYMVYEEKLFDEGGYGYTDALDLQYKGLHMEQAKALTSYAAIDFSGNRLEGQIPESIGLLKALIAVNISNNAFTGHIPLSMANLENLESLDMSRNQLSGTIPNGLGSISFLAYINVSHNQLTGEIPQGTQITGQSKSSFEGNAGLCGLPLKESCFGTGAPPMYHQKQEDESLPPPTPLPDSDDEWEAVAIGYGSGLLLGLAIAQVIASYKPEWLVKIIGLNKRRKRSDYKDHDGDYKDHDLDAAAADYKDDDDK | Ca^2+ increase
AtRLP23-eJM(EEEE/ADQ−)-3×FLAG (protein) SIFTLNFHFTGIVACRPHQIQAFTKFTNEFDTRGCNNSDTFNGVWCDNSTGAVAVLQLRKCLSGTLKSNSSLFGFHQLRYVDLQNNNLTSSSLPSGFGNLKRLEGLFLSSNGFLGQVPSSFSNLTMLAQLDLSYNKLTGSFPLVRGLRKLIVLDLSYNHFSGTLNPNSSLFELHQLRYLNLAFNNFSSSLPSKFGNLHRLENLILSSNGFSGQVPSTISNLTRLTKLYLDQNKLTSSFPLVQNLTNLYELDLSYNKFFGVIPSSLLTLPFLAHLALRENNLAGSVEVSNSSTSSRLEIMYLGSNHFEGQILEPISKLINLKHLDLSFLNTSYPIDLKLFSSLKSLRSLDLSGNSISSASLSSDSYIPLTLEMLTLRHCDINEFPNILKTLKELVYIDISNNRMKGKIPEWLWSLPLLQSVTLGNNYFTGFQGSAEILVNSSVLLLYLDSNNFEGALPDLPLSIKGFGVASNSFTSEIPLSICNRSSLAAIDLSYNNFTGPIPPCLRNLELVYLRNNNLEGSIPDALCDGASLRTLDVSHNRLTGKLPRSFVNCSSLKFLSVINNRIEDTFPFWLKALPNLQVLTLRSNRFYGPISPPHQGPLGFPELRIFEISDNKFTGSLPPNYFVNWKASSRTMNQDGGLYMVYEEKLFDEGGYGYTDALDLQYKGLHMEQAKALTSYAAIDFSGNRLEGQIPESIGLLKALIAVNISNNAFTGHIPLSMANLENLESLDMSRNQLSGTIPNGLGSISFLAYINVSHNQLTGEIPQGTQITGQSKSSFEGNAGLCGLPLKESCFGTGAPPMYHQKQEDKEEEEAEEDEQEVLNGRAVAIGYGSGLLLGLAIAQVIASYKPEWLVKIIGLNKRRKRSDYKDHDGDYKDHDLDAAAADYKDDDDK | Ca^2+ increase
AtRLP23-3×FLAG: AtRLP23 (amino acids 1-890) linked to the 3×FLAG peptide; SEQ ID NO: 13 (nucleotide), 14 (protein) (protein, Fusion protein) MSKALLHLHFLSLFLLCCVCHSSIFTLNFHFTGIVACRPHQIQAFTKFTNEFDTRGCNNSDTFNGVWCDNSTGAVAVLQLRKCLSGTLKSNSSLFGFHQLRYVDLQNNNLTSSSLPSGFGNLKRLEGLFLSSNGFLGQVPSSFSNLTMLAQLDLSYNKLTGSFPLVRGLRKLIVLDLSYNHFSGTLNPNSSLFELHQLRYLNLAFNNFSSSLPSKFGNLHRLENLILSSNGFSGQVPSTISNLTRLTKLYLDQNKLTSSFPLVQNLTNLYELDLSYNKFFGVIPSSLLTLPFLAHLALRENNLAGSVEVSNSSTSSRLEIMYLGSNHFEGQILEPISKLINLKHLDLSFLNTSYPIDLKLFSSLKSLRSLDLSGNSISSASLSSDSYIPLTLEMLTLRHCDINEFPNILKTLKELVYIDISNNRMKGKIPEWLWSLPLLQSVTLGNNYFTGFQGSAEILVNSSVLLLYLDSNNFEGALPDLPLSIKGFGVASNSFTSEIPLSICNRSSLAAIDLSYNNFTGPIPPCLRNLELVYLRNNNLEGSIPDALCDGASLRTLDVSHNRLTGKLPRSFVNCSSLKFLSVINNRIEDTFPFWLKALPNLQVLTLRSNRFYGPISPPHQGPLGFPELRIFEISDNKFTGSLPPNYFVNWKASSRTMNQDGGLYMVYEEKLFDEGGYGYTDALDLQYKGLHMEQAKALTSYAAIDFSGNRLEGQIPESIGLLKALIAVNISNNAFTGHIPLSMANLENLESLDMSRNQLSGTIPNGLGSISFLAYINVSHNQLTGEIPQGTQITGQSKSSFEGNAGLCGLPLKESCFGTGAPPMYHQKQEDKEEEEEEEEEEEEVLNGRAVAIGYGSGLLLGLAIAQVIASYKPEWLVKIIGLNKRRKRSDYKDHDGDYKDHDLDAAAADYKDDDDK | significant Ca^2+ increase
AtRLP23-eJMAtRLP1-3×FLAG: AtRLP23 with the AtRLP1 eJM domain, 3×FLAG; SEQ ID NO: 49, 50 (protein, Fusion protein) MSKALLHLHFLSLFLLCCVCHSSIFTLNFHFTGIVACRPHQIQAFTKFTNEFDTRGCNNSDTFNGVWCDNSTGAVAVLQLRKCLSGTLKSNSSLFGFHQLRYVDLQNNNLTSSSLPSGFGNLKRLEGLFLSSNGFLGQVPSSFSNLTMLAQLDLSYNKLTGSFPLVRGLRKLIVLDLSYNHFSGTLNPNSSLFELHQLRYLNLAFNNFSSSLPSKFGNLHRLENLILSSNGFSGQVPSTISNLTRLTKLYLDQNKLTSSFPLVQNLTNLYELDLSYNKFFGVIPSSLLTLPFLAHLALRENNLAGSVEVSNSSTSSRLEIMYLGSNHFEGQILEPISKLINLKHLDLSFLNTSYPIDLKLFSSLKSLRSLDLSGNSISSASLSSDSYIPLTLEMLTLRHCDINEFPNILKTLKELVYIDISNNRMKGKIPEWLWSLPLLQSVTLGNNYFTGFQGSAEILVNSSVLLLYLDSNNFEGALPDLPLSIKGFGVASNSFTSEIPLSICNRSSLAAIDLSYNNFTGPIPPCLRNLELVYLRNNNLEGSIPDALCDGASLRTLDVSHNRLTGKLPRSFVNCSSLKFLSVINNRIEDTFPFWLKALPNLQVLTLRSNRFYGPISPPHQGPLGFPELRIFEISDNKFTGSLPPNYFVNWKASSRTMNQDGGLYMVYEEKLFDEGGYGYTDALDLQYKGLHMEQAKALTSYAAIDFSGNRLEGQIPESIGLLKALIAVNISNNAFTGHIPLSMANLENLESLDMSRNQLSGTIPNGLGSISFLAYINVSHNQLTGEIPQGTQITGQSKSSFEGNAGLCGLPLKESCFGTGAPPMYHQKQEDTHAKEEENEEEGNVIDAVAIGYGSGLLLGLAIAQVIASYKPEWLVKIIGLNKRRKRSDYKDHDGDYKDHDLDAAAADYKDDDDK | Ca^2+ increase
